Reference: patent US20250179196A1 (Janssen / Centocor, published 2025)
Substitutions are numbered along the chain they refer to.

T1: human IL-23R expressed on the cell surface of stably transfected iLite and HEK cell lines (human, UniProt Q5VWK5 24-629)
T1 construct: whole, on cells; Same receptor on two transfected cell lines; the cell line is named under assay; also called human IL-23R iLite cells; human IL-23R HEK cells
T1 sequence (looked up): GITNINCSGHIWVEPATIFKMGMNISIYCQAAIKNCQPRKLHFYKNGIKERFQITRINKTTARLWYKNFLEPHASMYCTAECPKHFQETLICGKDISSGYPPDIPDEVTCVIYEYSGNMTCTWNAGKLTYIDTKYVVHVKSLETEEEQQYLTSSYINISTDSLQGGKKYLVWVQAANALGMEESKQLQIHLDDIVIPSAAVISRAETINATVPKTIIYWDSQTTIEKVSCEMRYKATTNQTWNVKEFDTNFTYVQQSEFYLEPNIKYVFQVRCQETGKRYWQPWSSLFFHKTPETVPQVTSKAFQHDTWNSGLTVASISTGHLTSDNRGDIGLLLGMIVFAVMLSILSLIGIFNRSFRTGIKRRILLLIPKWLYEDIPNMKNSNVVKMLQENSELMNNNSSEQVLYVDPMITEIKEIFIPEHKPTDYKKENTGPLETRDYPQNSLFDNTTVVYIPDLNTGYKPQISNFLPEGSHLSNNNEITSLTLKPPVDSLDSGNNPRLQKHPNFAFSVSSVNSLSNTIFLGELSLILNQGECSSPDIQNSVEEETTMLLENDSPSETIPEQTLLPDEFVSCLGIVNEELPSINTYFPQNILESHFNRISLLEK

B1: I23RB31 (antibody, mouse IgG2a, kappa, V domains shown)
VH: EFQLQQSGAEMVRPGASVKLSCKASGYTFTGYWMNWVKQRPGQGLEWIGKIDPSDTETHYNQNFKDKATLTVDKSSSTAYMQLNSLTSEDSAVYYCARWGLGRNFAMDYWGQGTTLTVSS
VL: DIVLTQSPATLSVTPGDRVSLSCRASQSISDHLHWYQQKSHESPRLLIKFASQSISGIPSRFSGSGSGSDFTLSIDSVEPEDVGVYYCQNGHSFPLTFGSGTKLEIKR
notes: immunization; mouse IgG2a/kappa
B2: I23RB188 (antibody, mouse IgG2a, kappa, V domains shown)
VH: QIQLVQSGPELKKPGETVKISCKASGYTFTNYGMNWVKQAPGKGLKWMGWINTYTGAPTYADDFKGRFAFSLETSASTAYLQINNFKNEDTATYFCARGNGYPYYYGINYWGQGTSVTVSS
VL: DVQMIQSPSSLSASLGERVSLTCRASQEISGNLSWLQQKPDGTIKRLIYAASTLDSGVPKRFSGSRSGSDYSLTISSLESEDFADYYCLQYASYPWTFGAGTRLEIKR
notes: as for B1
B3: I23RB27 (antibody, mouse IgG2a, kappa, V domains shown)
VH: QVQLKESGPDLVQPSQTLSLTCTVSGFSLTSYGVHWVRQPPGKGLEWVGTLGWDDKKSYNSALKSRLSISRDTSKSQVFLKLSSLQTEDTAMYYCTKEDVSYAMDFWGQGTTLTVSS
VL: DIQMTQSPTSLAVSLGQRATISCRASESVEYYGTSLMHWYQQKPGQPPKLLIYAASNVESGVPARFSGSGSGTDFSLNIHPVEEEDIAMYFCQQGKKVPWTFGAGTKLEMKR
notes: as for B1
B4: I23RB169 (antibody, mouse IgG2a, kappa, V domains shown)
VH: QIQLVQSGPELKKPGETVKISCKASGYTFTTVGMQWVQKMPGKGFKWIGWINTHSGEPKYTDDFKGRFAFSLETSASTAYLQISNLKSEDTATYFCARSSALTGAFAYWGQGTLVTVSS
VL: DIKMTQSPASLAVSLGQRATISCRASKSVSTSDYSYMHWYQQKPGQPPKLLIYLASNLESGVPARFSGSGSGTDFTLNIHPVEEEDAATYYCQHSRELPRTFGAGTKLELKR
notes: as for B1
B5: I23RB165 (antibody, mouse IgG2a, kappa, V domains shown)
VH: EVQLQQSGAELVRPGASVKLSCTASGFNIKDSLMHWVKQRPEQGLEWIGWIDPEDGKTKYAPKFQDKATITADTSSNTAYLQLSSLTSEDTAIYYCARREVLDYFDYWGQGTTLTVSS
VL: B4 VL with K3V, D33G, R100L, L110M
notes: as for B1
B6: I23RB36 (antibody, mouse IgG2a, kappa, V domains shown)
VH: QIQLVQSGAELVKPGASVKLSCTTSGFNIKDTYIHWMKQRPEQGLEWIGRIDPANGNTIYASKFQGKATLTTDTSSNTAYMLLSSLTSGDTAVYYCTRGTSWFAYWGQGTTVTVSS
VL: DIVMTQSPKSMSMSVGERVTLSCKASENVGTSVSWFQQKPEQSPKLLIYGASNRYTGVPDRFTGSGSATDFTLTISSVQAEDLADYHCGQSYSYPRTFGGGTKLEIKR
notes: as for B1
B7: I23RB162 (antibody, mouse IgG2a, kappa, V domains shown)
VH: EFQLQQSGPELVKPGASVKMSCKASGYTFTNYVMHWVKQKPGQGLEWIGYINPYNDGTKYNEKFKGKATLTSDKSSSTAYMELSSLTSEDSAVYYCARSRTGTRWYFDVWGAGTTVTVSS
VL: DIVMTQSQKFMSTSVGDRVSVTCKASQNVGTNVAWYQQKPGQSPKALIYSASYRYSGVPDRFTGSGSGTDFTLTISNVQSEDLAEYFCQQYNSYPFTFGSGTKLEIKR
notes: as for B1
B8: I23RB182 (antibody, mouse IgG2a, kappa, V domains shown)
VH: EVQLQQSGPGLVKPSQSLSLTCSVTGYSITSGYFWNWLRQFPGSKLEWMGFIDNDGSNDYNPSLKNRISITRDTSKNQFFLRLNSVTTEDTATYYCARGRLGFFDSWGPGTTLTVSS
VL: DIVMTQSPAIMSASLGEKVTMSCRASSSVNYMYWYQQKSDASPKLWIYYTSNLAPGVPARFSGSGSGNSYSLTISSMEGEDAATYYCQQFTNSPWTFGAGTKLELKR
notes: as for B1
B9: I23RB173 (antibody, mouse IgG2a, kappa, V domains shown)
VH: DVQLQESGPGLVKPSQSLSLTCSVTGYSITSGYYWNWIRQFPGNKLEWMGYISYDGGNNYNPSLKNRISITRDTSKNQFFLKLNSVTTEDTATYYCARDAGLLPYYAMDYWGQGTTLTVSS
VL: DIKMTQSPAIMSASPGEKVTITCSASSSVSYMHWFQQKPGTSPKLWIYSTSNLASGVPARFSGSGSGTSYSLTISRMEAEDAATYYCQQRSSYPLTFGDGTKLEMKR
notes: as for B1
B10: I23RB60 (antibody, mouse IgG2a, kappa, V domains shown)
VH: DVQLQESGPELVKPGDSVKMSCEASGYTFTDYYIDWVKQSHGKSLEWIGYIYPNNGGISFNQKFEGKATLTVDKSSSTAYMELHSLTSEDSAVYYCAREKLRGRDYWGQGTTLTVSS
VL: DIVMTQSTSSLSASLGDRVTISCRASQDIRNNLNWYQQKPDGTVKLLIFYSSRLHSGVPSRFSGSGSGTDYSLTISNLEQEDIATYFCQQGHTLPWTFGAGTKLELKR
notes: as for B1
B11: I23RB168 (antibody, mouse IgG2a, kappa, V domains shown)
VH: QIQLVQSGPELVKPGASVKMSCKTSGYTFTDYYINWVKQRPGQGLEWIGWIYPAINNTNYNEKFKGKATLTVDTSSRTAYMQLNSLTSEDSAVYFCAISRKPYFDYWGQGTTLTVSS
VL: DIQMTQSSSSFSVSLGDRVTITCKASEDLYNRLAWYQQKPGNAPRLLISGATSLGTGVLSRFSGSGSGKDYTLSITSLQTEDVATYYCQQYWSIPWTFGAGTKLELKR
notes: as for B1
B12: I23RB39 (antibody, mouse IgG2a, kappa, V domains shown)
VH: EVQLQQSGPELVKPGAPVKISCKASGYTFTNYYIHWVKQRPGQGLEWIGYIYPGNGGTAYNQKFKDKATLTADNPSSTAYMQLSSLTSEDSAVYFCARSRGGSRNYFDYWGQGTTLTVSS
VL: DIQMTQSHKFMSTSVGDRVSITCKASQDVSTAVAWYQQKPGQSPKLLIYSAFYRYTGVPDRFTGSGSGTDFTFTISSVQAEDLAVYYCQQHYSSPRTFGAGTKLELKR
notes: as for B1
B13: I23RB166 (antibody, mouse IgG2a, kappa, V domains shown)
VH: DVQLQESGPGLVKPSQTVSLTCTVTGYSITNGNHWWNWIRQVSGSKLEWIGYIRSSGSTDSNPSLKSRISITRDTSKNQLFLQLNSVTAEDIATYYCARERLRLRWSYFDYWGQGTTLTVSS
VL: B12 VL with Q3V, D17A, F52S, S94T, A100G, L106I
notes: as for B1
B14: I23RB156 (antibody, mouse IgG2a, kappa, V domains shown)
VH: QVQLKESGPGLVAPSQSLSITCTVSGFSLTSYAINWVRQPPGKGLEWLGVIWTGGGTNYNSVFKSRLSISKDNSKSQIFLKMISLQTDDTARYYCARNRDYSNYRWYFDVWGAGTTLTVSS
VL: B12 VL with Q3V, Q42R, S76G, S94I, R96L
notes: as for B1
B15: I23RB160 (antibody, mouse IgG2a, kappa, V domains shown)
VH: QVQLKESGPDLVKPSQSLSLTCTVTGYSITSGYNWHWIRQFPGNKLEWMGYIHYSSGTIYNPSLKSRISITRDTSKNQFFLQLNSVTTEDTGTYYCARQLGLKAMDYWGQGTSVTVSS
VL: B12 VL with Q3V, S30R, Y49H, F52S, A80V, S93T, S94T, R96Y, A100S, L106I
notes: as for B1
B16: I23RB58 (antibody, mouse IgG2a, kappa, V domains shown)
VH: EVKLVESGGGLVKPGGSLKLSCAASGFSFIIYTMSWVRQTPEKRLEWVAYITSGGGITYYPDSVKGRFTISRDNARNTLYLQMSSLRSEDTAMYYCARHEGDYYDDYYRIGYAMDYWGQGTSVTVSS
VL: DIVMTQTPASLAVSLGQRATISCRASESVDSYGNSFMHWYQQKPGQPPKLLIYRASNLESGIPARFSGSGSRTDFTLTINPVEADDVATYYCQQSNEDPLTFGAGTKLEMKR
notes: as for B1

molecular target: T1, human IL-23R expressed on the cell …; test: flow cytometry on human IL-23R HEK cells, Expt D (8-point, 96well)
Summary of the method: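 Serially diluted IL-23R mAbs bound to mixed HEK-IL-23R and parental HEK cells for 30 min at 37 °C, in duplicate. After washes, 647 detection antibody geometric MFI measured on single viable (Sytox Green-negative) cells and fitted to a variable-slope dose-response against log mAb concentration.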

Row | EC50 | Binder
1 | 1.7 nM | B1
2 | 2 nM | B2
3 | 3.5 nM | B3
4 | 0.7 nM | B4
5 | 0.6 nM | B5
6 | 0.4 nM | B6
7 | 0.1 nM | B7
8 | 36.4 nM | B8
9 | 0.4 nM | B9
10 | 0.6 nM | B10
11 | 3.4 nM | B11
12 | 0.3 nM | B12
13 | 0.3 nM | B13
14 | 0.4 nM | B14
15 | 0.4 nM | B15
16 | 23.1 nM | B16

molecular target: T1, human IL-23R expressed on the cell …; test: flow cytometry on human IL-23R HEK cells, Expt E (11-point, 384well)
Summary of the method: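 Antibody bound to HEK-IL-23R cells 30 min at 37 °C over 11 concentrations; after washes, Sytox Green added and cells run on iQue. Geometric MFI of 647 detection antibody on single viable cells fitted by variable-slope dose–response.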

Row | EC50 | MFI (6.4 nM) | Binder
17 | > 50 nM | 78600 MFI | B1
18 | > 50 nM | 90100 MFI | B2
19 | > 50 nM | 153000 MFI | B3
20 | 15.4 nM | 132000 MFI | B4
21 | 9.7 nM | 116000 MFI | B5
22 | 7.3 nM | 171000 MFI | B6
23 | 2.8 nM | 269000 MFI | B7
24 | > 50 nM | 26200 MFI | B8
25 | 7.4 nM | 100000 MFI | B9
26 | 27.7 nM | 93700 MFI | B10
27 | 22.1 nM | 73000 MFI | B11
28 | 3.8 nM | 277000 MFI | B12
29 | 11.6 nM | 198000 MFI | B13
30 | 8.9 nM | 174000 MFI | B14
31 | 5.6 nM | 185000 MFI | B15
32 | 11.6 nM | 150000 MFI | B16
